The DeepSol protein solubility set

experiment: soluble on expression in E. coli; label from the status in PepcDB or PDB records

Row | Sequence | soluble on expression in E. coli
1 | MSLDVPAMPERVETQGVEFVEFSTAPEEKANLEVLLATLGFEKSAQHRNRAVDLYTQGDIRIVINTSDDGDSFAGASYSIHGTNAYAFGLKVDDAQAALARAEALGAPTFAEPRNTGEVAVPAIQGVGNGVIYFLDASPALASIWDKEFVPTQGQKAMSDAGLTRVDHLAQTTHYDEMLTWLLFYTSLFSSRRTPMIDVVDPGGLVRSQAIESVPAANFRLTMNGADNRKTFAGKFLAEGFGSSIQHIAFATDDIFATAKAMQARGFHALPISRNYYDDLEARFGLEPEFSDALREASILYDRDDSGEYFQIYSRTFGEGFFFEVIERRGAYGGYGAMNAPFRIAAQRRLAEGHHHHHH | soluble
2 | SAMRQTPLTCSGHTRPVVDLAFSGITPYGYFLISACKDGKPMLRQGDTGDWIGTFLGHKGAVWGATLNTEATKAATAAADFTAKVWDAVTGDEVLTLAHKHIVKSVNFTQDSNYLLTGGNDKVLRIYDLSKPEAEPQEIAGHTSAIKKALWCNNDQQILSAADDKTIRLWDKNTNEAVKTLSFDASVSSMEYIPDGETLVITYGRTIAFYNAHSLDLIKTVDAPASIHSASLHPDKDFFVAGGDDFKLYKYDYTTKEEMESYKGHFGPVHCVRFSPDGELYASGSEDGTLRLWQTAVGKTYGLWKCVLPEELSSENSEALYCPPAEIKA | soluble
3 | YGHNELPAEEGKSLWELVIEQFEDLLVRILLLAACISFVLAW | soluble
4 | MGSDKIHHHHHHMDIYRHAQVMMNAAQAAHDLVDHLSIQPRGVVKVSVPVDIAQNLLPKILPAFLKKYPEIRLQLIVSNRRVDVINEGIDIALRVRSKLDDDPSLVLRQFALIEQSLFASQAYLNEFGNIKSPDELSDHRILSLSEEHLDQQFILHGPDNQLKKVKVSPTIMGTNIYMLAQLASQNCGIALLPDTAAEDFVKSGQLVQILPDWKAAHGIFHAVYPSRRGLLPAVRVFIDYLVEHLSEHP | not soluble
5 | MERREEQPGAAGAGAAPALDFTVENVEKALHQLYYDPNIENKNLAQKWLMQAQVSPQAWHFSWQLLQPDKVPEIQYFGASALHIKISRYWSDIPTDQYESLKAQLFTQITRFASGSKIVLTRLCVALASLALSMMPDAWPCAVADMVRLFQAEDSPVDGQGRCLALLELLTVLPEEFQTSRLPQYRKGLVRTSLAVECGAVFPLLEQLLQQPSSPSCVRQKVLKCFSSWVQLEVPLQDCEALIQAAFAALQDSELFDSSVEAIVNAISQPDAQRYVNTLLKLIPLVLGLQEQLRQAVQNGDMETSHGICRIAVALGENHSRALLDQVEHWQSFLALVNMIMFCTGIPGHYPVNETTSSLTLTFWYTLQDDILSFEAEKQAVYQQVYRPVYFQLVDVLLHKAQFPSDEEYGFWSSDEKEQFRIYRVDISDTLMYVYEMLGAELLSNLYDKLGRLLTSSEEPYSWQHTEALLYGFQSIAETIDVNYSDVVPGLIGLIPRISISNVQLADTVMFTIGALSEWLADHPVMINSVLPLVLHALGNPELSVSSVSTLKKICRECKYDLPPYAANIVAVSQDVLMKQIHKTSQCMWLMQALGFLLSALQVEEILKNLHSLISPYIQQLEKLAEEIPNPSNKLAIVHILGLLSNLFTTLDISHHEDDHEGPELRKLPVPQGPNPVVVVLQQVFQLIQKVLSKWLNDAQVVEAVCAIFEKSVKTLLDDFAPMVPQLCEMLGRMYSTIPQASALDLTRQLVHIFAHEPAHFPPIEALFLLVTSVTLTLFQQGPRDHPDIVDSFMQLLAQALKRKPDLFLCERLDVKAVFQCAVLALKFPEAPTVKASCGFFTELLPRCGEVESVGKVVQEDGRMLLIAVLEAIGGQASRSLMDCFADILFALNKHCFSLLSMWIKEALQPPGFPSARLSPEQKDTFSQQILRERVNKRRVKEMVKEFTLLCRGLHGTDYTADY | soluble
6 | MDRFKVVVTDYEFQTLAPEQEVLSSLNVEFVATQCRTEEEVISACRDADAIINQYAPISAEVIAQLEKCKIISRYGVGVNTVDVDAATEKGIIVANVTDYSIDEVSDHALALLLSLARKIVKLNHEVKSGTWNFNVGKPIYRLRGRTLGLVGLGRIPQALAKKAQAFGLRVIAYDPYVPAKVADELNVQLLGLNDVFRQSDYISVHAPLTKETKGMISDEQFNLAKKELIIVNTARGPVIDESALIRALQEGKISGAGLDVTECEPIQPDNPLLKMENVVITPHVAWYSEESEKELKRKTAQNVADVLSGYYPTYLVNHNVKEKMRLKEKGLYV | soluble
7 | MSLRQDILLNNNWNFRFSHQVQGDTRRVDLPHTWNAQDALAGKIDYKRGIGNYEKALYIRPEWKGKRLFLRFDGVNSIADVFINRKHIGEHRGGYGAFIFEITDLVKYGEKNSVLVRANNGEQLDIMPLVGDFNFYGGIYRDVHLLITDETCISPLDYASPGVYLVQEVVSPQEAKVCAKVNLSNRAADGTAELQVLVTDGTKVICKESRNVSLKQGADILEQLPLLIQKPRLWNGCEDPFMYQVSISLHKDGKQIDSVTQPLGLRYYHTDPDKGFFLNGKHLPLHGVCRHQDRAEVGNALRPQHHEEDVALMREMGVNAIRLAHYPQATYMYDLMDKHGIVTWAEIPFVGPGGYADKGFVDQASFRENGKQQLIELIRQHYNHPSICFWGLFNELKEVGDNPVEYVKELNALAKQEDPTRPTTSASNQDGNLNFITENIAWNRYDGWYGSTPKTLATFLDRTHKKHPELRIGISEYGAGASIYHQQDSLKQPSASGWWHPENWQTYYHMENWKIIAERPFVWGTFVWNMFDFGAAHRTEGDRPGINDKGLVTFDRKVRKDAFYFYKANWNKQEPMIYLAEKRCRLRYQPEQTFMAFTTAPEAELFVNGVSCGKQKADTYSTVVWKNVKLTSGENIIRVTTPGKKPLTDEVTVEYKEDREGHHHHHH | soluble
8 | MPNKISGSIAPSASSDAMKSADCAENIKEEVVSKHVHQAVPAELADLPSRQPPRSKTALYQVIQKFRDPLPLPPPPTSHPVLAYDRDLGSSDNFRSSDEFDLPESLNPTGWKNLHVSGSGSIASIGQITRLRPSKERPVVVLDAREESHAIVGGYPGTWRTPNNWGNAGKSRDEALADEQQRIQALKSQETVHIFHRKDVKSEARNPRGATLSKPLIFSEEELVRAAGAKYVRLTVTDHLSPRADDIDAFIAMEREMAHDERLHVHCGMGLGRTTIFIVMHDILRNAAMLSFDDIIERQRKFNPGRSLDNNKDVSDKGRSEFRNERSEFLPLFYEYAKQNPKGQPLLWSEWLDHNA | not soluble
9 | MCILFIALNAHPQYPLIICANRDEFHHRPTAPAQFWPPERNMLAGKDLQAGGTWFGVNTQGQLAGVTNLRVAQKNQEPMRSRGELVIQALNSGSLICPNWLVEHAQDYQPFNLVFGQGTNLYCFNSIRRETVKLTQGFHAISNGAMDDVWPKMAKGQRSLEALIQQSAQLEVESLIKLMQDDSQPQDNELPDTGVGLEWKRRLAAIYIRHPDYGTRSTSILLQNAQGEIQFTEVRYDGKGRRLGQQDFHFTLPPQLPPEPDCLVVFLEHHHHHH | not soluble
10 | MGSDKIHHHHHHMVILVNPSILESSFIPDRLVARDGEIERIMETVIKPTKNGITTNLILYGDSGTGKTVTMRYLAREIRDPQVVYVNAIAYRYVKNVLIDFLSKFGIIVPERSSYASLFTRIEGLLRNQGKNVILVIDEAANILKGDYDGLYYLFRSKDSFDVNISTIFVVMEDPAILFDAKIRKSYGIFSEIKFRRYTKGEIYQIVMNRAVQSLTGEGYDEDVLDYIAEVSAEYGSARVGIDILAKAAHIAEYRRSPKISFDDVRAARSMISPFVTESKLASMDYEDLMVLLSICRCLSASRFTDVDCISRNLSVISEQYGKKDINLYDRIKRLENNGIISSSIEGQGRGEGVKKVISIYDIPVSVLTEKIENLLSA | not soluble
11 | MLTLAEKLLLIGLNDETGKVHYQASTALPYGLAGAVLADLMLLGKVELQGKNIVVVDPKPVGQPIFDKALHIINKTPRKRNAKYWVQRLKRDLKTLRQDVLTLLIEQGILKEEKRKILGLFETRTYPAVDGEMEEQVKEKLRVLVLQPTEIEENKELAQERTLVLLSLVNACDLLRQVFDRQEARVVKKQVKHLTKDVPVSKAVKEMVDAINASVVLAITSAAVVTSSSSSSNLEHHHHHH | soluble
12 | QWGAPEAQKMARDLRSFALSGGSIVSVRAGVWARDANDFIFIGKVEDDKLYALNMWRFDDDKNLEKVIFAEEVDYQQDNNWLMRDVQITNMQDENVISKQEMDQMEWHTSLAPDKLAVVTVKPEELSLSGLYDYVTYLKASEQDASRYELAFWRKLTQP | not soluble
13 | MKHQHQHQHQHQHQQPLQEEEQAHATSLPPRASSPPQILPQLSPEQLGMIEKLVAAQQQCNRRSFSDRLRVTPWPMAPDPHSREARQQRFAHFTELAIVSVQEIVDFAKQLPGFLQLSREDQIALLKTSAIEVMLLETSRRYNPGSESITFLKDFSYNREDFAKAGLQVEFINPIFEFSRAMNELQLNDAEFALLIAISIFSADRPNVQDQLQVERLQHTYVEALHAYVSIHHPHDRLMFPRMLMKLVSLRTLSSVHSEQVFALRLQDKKLPPLLSEIWDVHE | soluble
14 | MIRTVKPKNARAKRALVKREAKLVENVKQALFIPGQSCNKNLHDIMVDLSALKKPDMKRFNRKNDIHPFEDMSPLEFFSEKNDCSLMVLMTSSKKRKNNMTFIRTFGYKIYDMIELMVADNFKLLSDFKKLTFTVGLKPMFTFQGAAFDTHPVYKQIKSLFLDFFRGESTDLQDVAGLQHVISMTIQGDFQDGEPLPNVLFRVYKLKSYKSDQGGKRLPRIELVEIGPRLDFKIGRIHTPSPDMVTEAHKKPKQLEMKTKKNVELDIMGDKLGRIHMGKQDLGKLQTRKMKGLKSKFDQGTEEGDGEVDEDYEDEASYSDDGQEYEEEFVSATDIEPSAKRQKK | not soluble
15 | MADRGGFQSGFGGRGGGRGGARPAGDRPAGRGGRGGRGGRGGRGGRAGRGGEKETEWTPVTKLGRLVKEKKITTLEEIYLNSLPIKEFEIIDALCSNLKDEVLKISPVQKQTTAGQRTRFKAFVAIGDHAGHVGLGVKCSKEVATAIRGAIVAAKLAVVPVRRGYWGNKIGLPHTVPCKVTGKCASVMVRLIPAPRGTGIVSAPVPKKLLHMAGIEDCYTAAKGSTATLGNFAKATYAALQRTYSYLTPDLWKEEALEKSPYQRHHEYLARN | not soluble
16 | MEPNPSDPVLTDRIQAIVTTEKSIDEMMKCAREIIQDLGKEKQIGKNKMEDNANNFKKLITQVENELSAQMQYLSHVCVGSSHQGSTFGVLQNSLLAQSGLSSLHSELFQIVRYLDPTSDEPQTTEEDEEDGSDDLNEDGADGAPSSTVTSSTTDGSGGGDDAASSSAPRSQEESGRQMTDDDDDMEQ | not soluble
17 | KALEEMHIPVDIITGTSMGAYVGGLYATGMSADEIESFIYSVDWNSGYRDRVDRSQRRVRDKEYEDRYQITTDLGLRFGEVRAPTGVVQGQNMLRVLRETTGNLGRFDSFDELAIPYRSVATDILELDEVVIGNGYLVDAMMASMSVPGALPPYKLNGHMLVDGGVVNNMPVDVARAMGADVVIAVDISTDYKTEDDFTGLFTVADQLSNYLVRRSTQQQVETLQEHDVYIRPNVGQMETVEFDKMPWAFQSGYDITREMESKLAGLRLSNAEYQKYIDHKQEVRKKLVYGDDRVVDEIVIVNNTHYS | not soluble
18 | MSLSGKNNIELDSWKKAINVISKNMDNGRIGIVQGPPGTGKTTIYANAFSRYFDKLGDGNIIVYIAPTNELVYDMFKKVGSEYAKRGAIDRISHEVRVYGSIFDQDPSIRSIREPPSMETKIVLMTNYQRLYPGNNRFNYNVMIDEASKSPLHTAFIGLANQLAKDELDGSISIVGDPMQAISLGPYQGSARRMLIMSYLLAPMLNHSSRDLNDRELLAEAKRSAIRGSSFEFLEVTLRMPSPSEEAISKGFYDNDLRAYRSASQILHSNYEANKLRELATEKEQMRKITEKVEELISTGRCILYERVNEKKSYDSNYYRKYGLTYDPTRAELGIETAIALAAGTGKHTTVITTYVDQQIQMDLLMRRKYGYILEKYGIRDQISFSTTQSFLGAEDDNIVAVLGKEYSISTYTQNYSTSTYNEGDPSTIYFNEPEVLNVQLSRHKMLLAIIGNLSILASQAAEGHHHHHH | not soluble
19 | MEAIKDKERKERRDKKLAIANLAAKQKREKKKQQKNGAELAARARKAKAEKAKTSEPPAQGVVTRAAAQKAREAAQAANHQ | not soluble
